Experimental findings from patent US20240052064A1 (Bristol-Myers Squibb, published 2024) are described below.

Test [1] deals with T1, Human CD3ED, TPP401 (human, UniProt P07766 23-126; P04234 22-105).
T1 construct: 'CD3ED' is read here as the CD3 epsilon/delta pair; also called Antigen 2
The test is described as follows: SPR (Biacore T200), single-cycle kinetics, antibody captured on anti-human IgG, antigen injected; sensorgram of sample stored at pH 8, 40 C compared with the non-stressed standard. The procedure: (§1) SPR experiments were performed using a Biacore T200 system (GE Healthcare, Uppsala, Sweden) with analysis and sample compartment temperatures set at 25° C. and 7° C. respectively.
(§2) Anti-Human IgG (from anti-human IgG Capture Kit) was amine coupled to the surface of a CM5 chip according to the manufacturer's instructions. Molecule bispecific antibodies diluted to 1 μg/mL in running buffer were captured on the chip surface in a 60 s injection. Following the single-cycle kinetics procedure, antigen was next injected five times (30 s per injection) at incrementally increasing concentrations at a flow rate of 30 μL/min. Antigen concentrations ranged from 0.08 to 50 nM for BCMA and between 12.7 to 1000 nM for CD3. A 300 s dissociation time was added after the last antigen injection. Following each experiment, all flow cells were regenerated using a 30 s injection of 3M MgCl₂.
(§3) Prior to analysis, data were double referenced by first subtracting data from a reference flow cell and then subtracting a blank cycle where buffer was injected instead of antigen. The sensorgram comparison analysis was implemented using a Biacore T200 (software version 3.0). All data were normalized with respect to the response where 100% reflects the maximum binding obtained during injection and 0% reflects the baseline. Average and ±3 standard deviation (SD) sensorgrams were calculated from ten or more independent sensorgrams of each molecule's non-stressed material (standard). For quantitation of binding similarities of the stressed samples against the corresponding non-stressed standard, sample sensorgrams were co-evaluated with the sensorgrams of the standard. The degree of similarity was calculated based on how many sample data points fell inside or outside the ±3 standard deviation limits according to Equation 2, where SSQ is the sum of squares (Karlsson, R, Pol, E., and Frostell, A. (2016); Analytical Biochemistry 502, 53-63).
On the technique in general: In SPR one partner is held on a chip, and binding of the other changes the refractive index at the surface.

Test [2] has as its target T2, Human BCMA, TPP208 (human, UniProt Q02223 1-54, limits assumed).
T2 construct: also called Antigen 1
T2 sequence (looked up): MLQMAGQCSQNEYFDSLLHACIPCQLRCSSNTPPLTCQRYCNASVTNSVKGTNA
The description is as above. The procedure: as §1, §2, §3

The target of test [3] is T1, Human CD3ED, TPP401. The test can be described thus: SPR (Biacore T200), single-cycle kinetics, antibody captured on anti-human IgG, antigen injected; sensorgram of sample stored at pH 6, 40 C compared with the non-stressed standard. The procedure:
as §1, §2, §3

For test [4], the target named is T2, Human BCMA, TPP208. The description is as above. The procedure:
as §1, §2, §3

Test [5] has as its target T1, Human CD3ED, TPP401. The test can be described thus: SPR (Biacore T200), single-cycle kinetics, antibody captured on anti-human IgG, antigen injected; sensorgram of sample stored at pH 4, 40 C compared with the non-stressed standard. The protocol: as §1, §2, §3
Test [6] concerns the target T2, Human BCMA, TPP208. The test is described as above. The procedure:
as §1, §2, §3

In test [7] the target is T1, Human CD3ED, TPP401. The test can be described thus: SPR (Biacore T200), single-cycle kinetics, antibody captured on anti-human IgG, antigen injected; sensorgram of sample stored at pH 6 with tert-butyl peroxide, 40 C compared with the non-stressed standard. The protocol: as §1, §2, §3
Test [8] addresses T2, Human BCMA, TPP208. The description is as above. The protocol:
as §1, §2, §3

The target in a further test is T3, BCMA (human, UniProt Q02223 1-54, limits assumed).
T3 construct: also called B cell maturation antigen; TNFRSF17
T3 sequence (looked up): T2 sequence (looked up)

The target in test [9] is T4, BCMA on cells (JEKO cells, plasmablasts) (human, UniProt Q02223 1-184).
T4 sequence (looked up): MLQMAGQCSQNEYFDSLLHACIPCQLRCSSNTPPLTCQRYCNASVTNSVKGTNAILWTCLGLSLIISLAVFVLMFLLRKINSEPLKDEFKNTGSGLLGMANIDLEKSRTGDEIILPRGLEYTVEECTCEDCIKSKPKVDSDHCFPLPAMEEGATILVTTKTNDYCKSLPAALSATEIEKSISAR
The test can be described thus: cell-based or functional assay.

The target of test [10] is T4, BCMA on cells (JEKO cells, plasmablasts). The test can be described thus: cell-based or functional assay. This is another data set of the same source.
Test [11] has the same target. The test can be described thus: cell-based or functional assay. The source holds these as a separate data set.

For orientation: Kd means the free concentration of one partner at which half of the binding sites on the other are occupied at equilibrium, for simple one-to-one binding. Higher therefore signals a looser complex.

T1 sequence (P07766 23-126, chain 1 of 2): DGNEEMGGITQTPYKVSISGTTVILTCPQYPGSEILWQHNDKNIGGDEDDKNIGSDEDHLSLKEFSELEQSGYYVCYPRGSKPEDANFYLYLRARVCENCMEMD
T1 sequence (P04234 22-105, chain 2 of 2): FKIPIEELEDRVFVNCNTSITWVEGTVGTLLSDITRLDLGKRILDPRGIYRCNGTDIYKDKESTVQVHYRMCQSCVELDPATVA

B1: Mab102 (bispecific antibody, human IgG1, L234A L235A)
heavy 1: EVQLLESGGGLVQPGGSLRLSCAASGFTFSDNAMGWVRQAPGKGLEWVSAISGPGSSTYYADSVKGRFTISRDNSKNTLYLQMNSLRAEDTAVYYCAKVLGWFDYWGQGTLVTVSSASTKGPSVFPLAPSSKSTSGGTAWLGCEVTDYFPEPVTVSWNSGALTSGVHTFPAVLESSGLYSLSSVVTVPSSSLGTQTYICNVNHKPSNTKVDKKVEPKSCDKTHTCPPCPAPEAAGGPSVFLFPPKPKDTLMISRTPEVTCVVVDVSHEDPEVKFNWYVDGVEVHNAKTKPREEQYNSTYRVVSVLTVLHQDWLNGKEYKCKVSNKALGAPIEKTISKAKGQPREPQVYVYPPSREEMTKNQVSLTCLVKGFYPSDIAVEWESNGQPENNYKTTPPVLDSDGSFALVSKLTVDKSRWQQGNVFSCSVMHEALHNHYTQKSLSLSPG
heavy 2: EVQLLESGGGLVQPGGSLRLSCAASGFTFSDNAMGWVRQAPGKGLEWVSAISGPGSSTYYADSVKGRFTISRDNSKNTLYLQMNSLRAEDTAVYYCAKVLGWFDYWGQGTLVTVSSASTKGPSVFPLAPSSKSTSGGTAWLGCEVTDYFPEPVTVSWNSGALTSGVHTFPAVLESSGLYSLSSVVTVPSSSLGTQTYICNVNHKPSNTKVDKKVEPKSCDGGGGSGGGGSQAVVTQEPSLTVSPGGTVTLTCGSSTGAVTTSNYANWVQEKPGQAFRGLIGGTNKRAPGTPARFSGSLLGGKAALTLSGAQPEDEAEYYCALWYSNLWVFGGGTKLTVLSSASTKGPSVFPLAPSSKSTSGGTAALGCLVKDYFPEPVTVSWNSGALTSGVHTFPAVLQSSGLYSLSSVVTVPSSSLGTQTYICNVNHKPSNTKVDKKVEPKSCDKTHTCPPCPAPEAAGGPSVFLFPPKPKDTLMISRTPEVTCVVVDVSHEDPEVKFNWYVDGVEVHNAKTKPREEQYNSTYRVVSVLTVLHQDWLNGKEYKCKVSNKALGAPIEKTISKAKGQPREPQVYVLPPSREEMTKNQVSLLCLVKGFYPSDIAVEWESNGQPENNYLTWPPVLDSDGSFFLYSKLTVDKSRWQQGNVFSCSVMHEALHNHYTQKSLSLSPG
light 1: EIVLTQSPGTLSLSPGERATLSCRASQSVSSYYLAWYQQKPGQAPRLLISGAGSRATGIPDRFSGSGSGTDFTLTISRLEPEDFAVYYCQQYGYPPDFTFGQGTKVEIKRTVAAPSVAIFPPSDERLKSGTASVVCVLNNFYPREAKVQWKVDNALQSGNSQESVTEQDSKDSTYSLSSRLTLSKADYEKHKVYACEVTHQGLSSPVTKSFNRGEC
light 2: EVQLLESGGGLVQPGGSLRLSCAASGFTFSTYAMNWVRQAPGKGLEWVSRIRSKYNNYATYYADSVKGRFTISRDDSKNTLYLQMNSLRAEDTAVYYCVRHGNFGNSYVSWFAYWGQGTLVTVSSASVAAPSVFIFPPSDEQLKSGTASVVCLLNNFYPREAKVQWKVDNALQSGNSQESVTEQDSKDSTYSLSSTLTLSKADYEKHKVYACEVTHQGLSSPVTKSFNRGEC
notes: also called BCMA TCE; BCMA T cell engager
Take B1: in the test with Human CD3ED, TPP401 [1], the “pH 8 SPR % similarity-CD3” value is 70.1%. Besides, in the test with Human BCMA, TPP208 [2], the “pH 8 SPR % similarity-BCMA” value is 95.7%. For the same molecule, the “pH 6 SPR % similarity-CD3” value with Human CD3ED, TPP401 [3] is 100%. Also, the “pH 6 SPR % similarity-BCMA” value with Human BCMA, TPP208 [4] worked out at 99.4%. Further, the “pH 4 SPR % similarity-CD3” value with Human CD3ED, TPP401 [5] is 100%. Moreover, the “pH 4 SPR % similarity-BCMA” value with Human BCMA, TPP208 [6] amounted to 100%. Further, in the test with Human CD3ED, TPP401 [7], the “pH 6-TBP SPR % similarity-CD3” value turned out to be 72.3%. The “pH 6-TBP SPR % similarity-BCMA” value in the test with Human BCMA, TPP208 [8] worked out at 54%. Moreover, the Kd in the test with BCMA worked out at 60 pM. The “EC50 for JEKO cell killing (nM), T cell-mediated, annexin V, 20 h, T:E 1:2” value in test [9] was found to be 0.12 nM. Also, in test [10], the “EC50 PB killing (nM), AAV-1 (n = 1)” value worked out at 0.003 nM and the “EC50 PB killing (nM), healthy volunteers (n = 3)” value was 0.007 nM. For the same molecule, the “EC50 for BM plasmablast killing (nM), bone marrow mononuclear cells, 24 h” value in [11] is 0.00281 nM.
